Changes are numbered by the printed parent chain.

Assay [1] concerns the target T1, tetanus neurotoxin (TeNT), authentic tetanus holotoxin (Clostridium tetani, UniProt P04958 2-1315). As to the kind of experiment: ELISA, directly coated TeNT, biotinylated binder.
T1 sequence (P04958 2-457 limits assumed, chain 1 of 2): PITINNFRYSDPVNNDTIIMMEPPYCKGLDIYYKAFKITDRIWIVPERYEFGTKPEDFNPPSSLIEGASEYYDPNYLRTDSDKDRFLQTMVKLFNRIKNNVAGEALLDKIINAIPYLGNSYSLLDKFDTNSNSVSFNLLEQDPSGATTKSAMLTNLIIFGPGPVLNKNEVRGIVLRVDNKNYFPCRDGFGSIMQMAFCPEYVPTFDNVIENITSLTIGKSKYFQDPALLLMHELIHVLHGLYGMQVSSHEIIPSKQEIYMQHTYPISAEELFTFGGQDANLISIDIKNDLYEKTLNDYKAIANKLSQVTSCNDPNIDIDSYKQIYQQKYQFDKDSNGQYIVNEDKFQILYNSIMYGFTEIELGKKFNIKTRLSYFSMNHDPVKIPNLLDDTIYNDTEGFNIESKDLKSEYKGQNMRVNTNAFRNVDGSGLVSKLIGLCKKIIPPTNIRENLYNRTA
T1 sequence (P04958 458-1315 limits assumed, chain 2 of 2): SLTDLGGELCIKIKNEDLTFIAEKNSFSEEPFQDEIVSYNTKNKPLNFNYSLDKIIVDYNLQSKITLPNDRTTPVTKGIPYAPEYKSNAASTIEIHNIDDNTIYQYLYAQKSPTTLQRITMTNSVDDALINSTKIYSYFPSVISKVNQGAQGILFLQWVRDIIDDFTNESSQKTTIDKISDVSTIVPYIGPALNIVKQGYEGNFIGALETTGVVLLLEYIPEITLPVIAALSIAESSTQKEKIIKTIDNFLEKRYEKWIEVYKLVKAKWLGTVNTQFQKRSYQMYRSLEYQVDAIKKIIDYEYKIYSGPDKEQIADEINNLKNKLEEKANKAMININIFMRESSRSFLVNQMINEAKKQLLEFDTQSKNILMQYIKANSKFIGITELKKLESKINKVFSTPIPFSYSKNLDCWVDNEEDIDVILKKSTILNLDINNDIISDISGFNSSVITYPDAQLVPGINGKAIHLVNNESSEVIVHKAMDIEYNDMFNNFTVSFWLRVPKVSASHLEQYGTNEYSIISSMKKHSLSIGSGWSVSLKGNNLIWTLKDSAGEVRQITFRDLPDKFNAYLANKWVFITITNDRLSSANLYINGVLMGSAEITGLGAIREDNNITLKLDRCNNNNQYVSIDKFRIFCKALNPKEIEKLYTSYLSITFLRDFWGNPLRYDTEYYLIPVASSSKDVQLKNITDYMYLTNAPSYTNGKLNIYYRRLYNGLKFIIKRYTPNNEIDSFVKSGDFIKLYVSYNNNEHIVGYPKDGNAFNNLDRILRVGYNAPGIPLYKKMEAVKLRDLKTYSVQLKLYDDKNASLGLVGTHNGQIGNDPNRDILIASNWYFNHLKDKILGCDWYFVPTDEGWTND
In assay [2] the target is T1, tetanus neurotoxin (TeNT), authentic …. As to the kind of experiment: ELISA, TeNT captured with cAb-TT2, biotinylated binder.
The target is the same in assay [3]. As to the kind of experiment: ELISA, TeNT captured with cAb-TT2, unlabelled binder.
Target sequence in this assay (P04958 2-457 limits assumed, chain 1 of 2): as the sequence (P04958 2-457 limits assumed, chain 1 of 2) above
Target sequence in this assay (P04958 458-1315 limits assumed, chain 2 of 2): as the sequence (P04958 458-1315 limits assumed, chain 2 of 2) above
The target is the same in assay [4]. Nature of the assay: GT1b-TeNT inhibition ELISA, unlabelled binder. A general note: ELISA stands for enzyme-linked immunosorbent assay.
Target sequence in this assay (P04958 2-457 limits assumed, chain 1 of 2): as the sequence (P04958 2-457 limits assumed, chain 1 of 2) above
Target sequence in this assay (P04958 458-1315 limits assumed, chain 2 of 2): as the sequence (P04958 458-1315 limits assumed, chain 2 of 2) above
Assay [5] concerns the target T2, recombinant tetanus toxin fragment C (rTTC) (Clostridium tetani, UniProt P04958 865-1315).
T2 sequence: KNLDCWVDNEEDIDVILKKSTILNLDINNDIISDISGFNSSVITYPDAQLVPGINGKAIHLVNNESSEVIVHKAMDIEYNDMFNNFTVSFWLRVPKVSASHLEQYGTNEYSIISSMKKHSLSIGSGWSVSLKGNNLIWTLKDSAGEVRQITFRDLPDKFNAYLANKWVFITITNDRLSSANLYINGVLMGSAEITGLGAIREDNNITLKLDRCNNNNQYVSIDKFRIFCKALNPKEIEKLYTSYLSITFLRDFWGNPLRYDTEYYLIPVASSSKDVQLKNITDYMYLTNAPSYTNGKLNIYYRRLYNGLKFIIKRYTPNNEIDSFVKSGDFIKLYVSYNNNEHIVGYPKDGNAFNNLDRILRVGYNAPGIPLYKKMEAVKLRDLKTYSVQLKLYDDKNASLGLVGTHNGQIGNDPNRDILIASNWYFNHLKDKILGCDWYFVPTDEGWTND
Nature of the assay: ELISA, directly coated rTTC, unlabelled binder.

The target of assay [6] is T1, tetanus neurotoxin (TeNT), authentic …. As to the kind of experiment: ELISA, directly coated TeNT, unlabelled binder.
Assay [7] has the same target. Nature of the assay: GT1b-TeNT inhibition ELISA, EC at A450 0.59.
Target sequence in this assay (P04958 2-457 limits assumed, chain 1 of 2): as the sequence (P04958 2-457 limits assumed, chain 1 of 2) above
Target sequence in this assay (P04958 458-1315 limits assumed, chain 2 of 2): as the sequence (P04958 458-1315 limits assumed, chain 2 of 2) above
Assay [8] deals with T3, tetanus neurotoxin (TeNT), authentic tetanus holotoxin (Clostridium tetani, UniProt P04958 2-1315). As to the kind of experiment: ELISA, cAb-TT2 captured TeNT, E. coli supernatant.
T3 sequence (P04958 2-457 limits assumed, chain 1 of 2): as the sequence (P04958 2-457 limits assumed, chain 1 of 2) above
T3 sequence (P04958 458-1315 limits assumed, chain 2 of 2): as the sequence (P04958 458-1315 limits assumed, chain 2 of 2) above
Assay [9] addresses T4, recombinant tetanus toxin fragment C (rTTC) (Clostridium tetani, UniProt P04958 865-1315).
T4 sequence: T2 sequence
As to the kind of experiment: ELISA, directly coated rTTC, E. coli supernatant.

Assay [10] addresses T3, tetanus neurotoxin (TeNT), authentic …. Nature of the assay: GT1b-TeNT inhibition ELISA (no SDA: 1.302, 1.257).
Assay [11] has the same target. Nature of the assay: ELISA, directly coated TeNT, E. coli supernatant.
Target sequence in this assay (P04958 2-457 limits assumed, chain 1 of 2): as the sequence (P04958 2-457 limits assumed, chain 1 of 2) above
Target sequence in this assay (P04958 458-1315 limits assumed, chain 2 of 2): as the sequence (P04958 458-1315 limits assumed, chain 2 of 2) above

B1: SVT31L (VHH)
VHH: QVQLQESGGGSVQAGGSLTLSCAASEFSYNDYTIAWFRRAAGKGRVEDGEGVASITKSYDRAYDNRIHYADSVKGRFTISRDNAKNTVYLQMTSLNPSDTAVYYCALDITPPGGIGASLTEGFLFDYWGQGTQVTVSS
Consider B1, for which the “EC resulting in A450 0.4” value in assay [1] is 0.98 ng/mL. Moreover, the “maximal absorbance at 450 nm” value in [1] was found to be 1.43; in assay [2] it was 1.03; in assay [3], 0.27; in assay [5], 0.483; in [6], 1.32. Further, the “EC resulting in A450 0.2” value was 1.5 ng/mL in assay [2] and 2.4 ng/mL in [6]. Further, in assay [3], the “EC resulting in A450 0.15” value was found to be 4.3 ng/mL. Also, the “minimal absorbance at 450 nm” value in assay [4] came out at 0.568. Also, the “concentration giving A450 of 0.59” value in assay [7] turned out to be 0.986 µg/mL.

B2: SVT08 (VHH)
VHH: B1 VHH with T19R, A23T, K57T, A70G, S94N, A106G
Consider B2, for which the “absorbance at 450 nm” value in assay [8] came to 0.51 A450; in [9] it was 0.13 A450; in assay [10], 0.746 A450; in assay [11], 1.07 A450.

B3: SVT31 (VHH)
VHH: B1 VHH
On to B3, for which the “absorbance at 450 nm” value is 1.09 A450 in [8], 0.218 A450 in [9], 0.105 A450 in [10] and 1.38 A450 in [11].

B4: SVT06 (VHH)
VHH: QVQLQESGGGSVQAGGSLRLSCTASELSYDDYTIAWFRRAAGEGRVEDGEGVASITKSYDRAYDNKINYGHSVKGRFTISRDNAKNTVYLQMTDLLPSDTAVYYCALDITPPGGVGASLTEGFLFDYWGQGTQVTVSS
With B4, the “absorbance at 450 nm” value in [8] worked out at 0.683 A450; in assay [9], 0.105 A450; in assay [10], 0.72 A450; in assay [11] it was 1.04 A450.

B5: SVT16 (VHH)
VHH: QVQLQESGGGSVQAGDSLRLSCAASGRTISNYAMGWFRQAPGKQREFVAAISRSDNTYYTDSVKGRFTISRDNAKNTLYLQMNSLKPEETAVYYCAADPNLMYESKWKYRALEAWGQGTLVTVSS
On to B5, for which the “absorbance at 450 nm” value in [8] worked out at 0.736 A450; in assay [9] it was 0.151 A450; in [10], 0.12 A450; in [11], 1.04 A450.

B6: SVT25 (VHH)
VHH: B5 VHH with S11L, D16G, N31V, A74V, S105T
For B6, the “absorbance at 450 nm” value in assay [8] was found to be 0.427 A450; in [9], 0.211 A450; in [10] it was 0.139 A450; in assay [11] it was 1.14 A450.

B7: SVT25L (VHH)
VHH: B5 VHH with S11L, D16G, N31V, A74V, S105T
As for B7, the “EC resulting in A450 0.4” value in assay [1] came out at 43 ng/mL. Further, the “maximal absorbance at 450 nm” value in [1] was 0.985; in assay [2], 0.302; in assay [3], 0.362; in assay [5], 0.936; in [6], 1.56. Further, the “EC resulting in A450 0.2” value in [2] was determined as 84 ng/mL; in assay [6], 3.6 ng/mL. Further, the “EC resulting in A450 0.15” value in [3] came out at 6.4 ng/mL. In assay [4], the “minimal absorbance at 450 nm” value was determined as 0.106. For the same molecule, the “concentration giving A450 of 0.59” value in assay [7] was 0.133 µg/mL.

B8: SVT13 (VHH)
VHH: QVQLQESGGGLVQAGGSLRLSCAVSGTNFDDYAIGWFRQAPGKRREAVACISKTDGVTRYGNGVKGRFTISSDEARNTVFLQMNDLKDEDTAIYYCIGDFKSCGMGYKPIDHWGRGIQVTVSS
Take B8: the “absorbance at 450 nm” value is 0.165 A450 in assay [8], 0.128 A450 in [9], 0.196 A450 in assay [10] and 0.762 A450 in [11].

B9: SVT29L (VHH)
VHH: QVQLQESGGGLVQTGGSLTLSCRAYGRAFDNYHFGWFRQAPGKDREFVASISWKGGSTYRANFALGRFTSSVNRGESSVYLHMSGLTPEDTATYYCAAHDGGDWNYHTGMDYWGKGILVTVSS
In the case of B9, the “EC resulting in A450 0.4” value in assay [1] stood at 6.9 ng/mL. The “maximal absorbance at 450 nm” value in [1] stood at 1.13; in [2], 0.596; in assay [3], 0.429; in [5] it was 0.58; in [6], 1.52. Besides, the “EC resulting in A450 0.2” value in assay [2] worked out at 14 ng/mL; in assay [6], 2.6 ng/mL. Besides, in [3], the “EC resulting in A450 0.15” value was determined as 6.3 ng/mL. Further, in assay [4], the “minimal absorbance at 450 nm” value was determined as 0.135. The “concentration giving A450 of 0.59” value in assay [7] was 0.114 µg/mL.

B10: SVT15 (VHH)
VHH: B9 VHH with T19R, Y25S, D30A, R60Y, N73D, G75A, H82Q
Take B10: the “absorbance at 450 nm” value in assay [8] was found to be 0.68 A450; in assay [9], 0.099 A450; in assay [10], 0.19 A450; in [11], 1.03 A450.

B11: SVT29 (VHH)
VHH: B9 VHH
With B11, the “absorbance at 450 nm” value in [8] is 0.868 A450; in assay [9], 0.111 A450; in [10] it was 0.152 A450; in assay [11], 1.28 A450.

B12: SVT20 (VHH)
VHH: QVQLQQSGGGLVQAGGSLRLSCAASGRTMSSYAMGWFRQAPGKQREFVAAISRSGGNTYYTDSVKGRFTISRDNAKNTLYLQMNSLKPEETAVYYCAADPNLMYESKWKYRALEAWGQGTLVTVSS
Regarding B12, the “absorbance at 450 nm” value in assay [8] was 0.685 A450; in assay [9] it was 0.165 A450; in [10], 0.132 A450; in assay [11], 1.08 A450.

B13: SVT20L (VHH)
VHH: B12 VHH
As to B13, in assay [1], the “EC resulting in A450 0.4” value turned out to be 2.1 ng/mL. Moreover, the “maximal absorbance at 450 nm” value in [1] came out at 1.2; in assay [2] it was 0.535; in [3] it was 0.327; in [5], 0.967; in [6], 1.54. The “EC resulting in A450 0.2” value was determined as 4.5 ng/mL in assay [2] and 1.2 ng/mL in [6]. For the same molecule, in assay [3], the “EC resulting in A450 0.15” value amounted to 3.1 ng/mL. In addition, in assay [4], the “minimal absorbance at 450 nm” value amounted to 0.117. In addition, the “concentration giving A450 of 0.59” value in assay [7] is 0.039 µg/mL.

B14: SVT34 (VHH)
VHH: B12 VHH with Q6E, A14P, M29I, T69I, S85N
Turning to B14, the “absorbance at 450 nm” value in assay [8] worked out at 0.483 A450; in assay [9], 0.16 A450; in [10], 0.117 A450; in assay [11], 1.43 A450.

B15: SVT05L (VHH)
VHH: QVQLQESGGGLVQPGGSLRLSCSASGFSFTDDYGIGWFRSGPGKGREAVAPIADREAVAAIALSDGNTYYSASAKGRFTISRDNAKSTAYLQMNNLKPEDTATYYCAADFWGYGMSWPMATLWEYWGQGIQVTVSS
For the molecule B15, the “EC resulting in A450 0.4” value in assay [1] is 0.98 ng/mL. The “maximal absorbance at 450 nm” value in assay [1] was determined as 1.26; in assay [2], 0.622; in [3] it was 0.375; in assay [5], 0.604; in assay [6], 1.29. The “EC resulting in A450 0.2” value in assay [2] was 1.7 ng/mL; in assay [6], 0.51 ng/mL. Besides, the “EC resulting in A450 0.15” value in assay [3] came to 0.86 ng/mL. In addition, the “minimal absorbance at 450 nm” value in [4] worked out at 0.655. Also, in assay [7], the “concentration giving A450 of 0.59” value is above 1 µg/mL.

Values taken from patent publication US20240376185A1 (SMIVET B V, published 2024).
